Assay [1] addresses T1, Recombinant Notch-1 protein (UniProt P46531 19-2555).
T1 chain: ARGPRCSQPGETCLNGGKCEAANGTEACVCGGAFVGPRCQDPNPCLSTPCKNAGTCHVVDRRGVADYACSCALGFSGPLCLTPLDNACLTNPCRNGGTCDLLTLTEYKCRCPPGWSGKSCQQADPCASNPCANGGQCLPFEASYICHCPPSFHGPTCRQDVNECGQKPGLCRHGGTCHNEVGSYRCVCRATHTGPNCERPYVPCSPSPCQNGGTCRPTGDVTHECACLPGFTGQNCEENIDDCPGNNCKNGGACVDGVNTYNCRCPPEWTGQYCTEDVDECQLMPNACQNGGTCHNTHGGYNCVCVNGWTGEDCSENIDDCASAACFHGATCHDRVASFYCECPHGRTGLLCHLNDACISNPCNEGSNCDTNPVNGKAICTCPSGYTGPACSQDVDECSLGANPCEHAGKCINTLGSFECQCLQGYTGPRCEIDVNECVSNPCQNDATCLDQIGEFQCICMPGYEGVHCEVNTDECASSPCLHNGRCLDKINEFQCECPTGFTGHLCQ
As to the kind of experiment: ELISA. Background: ELISA stands for enzyme-linked immunosorbent assay.

Assay [2] addresses T2, Recombinant TGFBI (transforming growth factor-beta-induced protein) (UniProt Q15582 24-683).
T2 construct: Transforming growth factor-beta-induced protein (TGFBI, βig-H3); cDNA inserted into the EcoRV and EcoRI sites of pET-29b; also called βig-H3; keratoepithelin; source: E. coli, IPTG-induced, purified (Ni-NTA column, dialyzed)
T2 sequence (looked up): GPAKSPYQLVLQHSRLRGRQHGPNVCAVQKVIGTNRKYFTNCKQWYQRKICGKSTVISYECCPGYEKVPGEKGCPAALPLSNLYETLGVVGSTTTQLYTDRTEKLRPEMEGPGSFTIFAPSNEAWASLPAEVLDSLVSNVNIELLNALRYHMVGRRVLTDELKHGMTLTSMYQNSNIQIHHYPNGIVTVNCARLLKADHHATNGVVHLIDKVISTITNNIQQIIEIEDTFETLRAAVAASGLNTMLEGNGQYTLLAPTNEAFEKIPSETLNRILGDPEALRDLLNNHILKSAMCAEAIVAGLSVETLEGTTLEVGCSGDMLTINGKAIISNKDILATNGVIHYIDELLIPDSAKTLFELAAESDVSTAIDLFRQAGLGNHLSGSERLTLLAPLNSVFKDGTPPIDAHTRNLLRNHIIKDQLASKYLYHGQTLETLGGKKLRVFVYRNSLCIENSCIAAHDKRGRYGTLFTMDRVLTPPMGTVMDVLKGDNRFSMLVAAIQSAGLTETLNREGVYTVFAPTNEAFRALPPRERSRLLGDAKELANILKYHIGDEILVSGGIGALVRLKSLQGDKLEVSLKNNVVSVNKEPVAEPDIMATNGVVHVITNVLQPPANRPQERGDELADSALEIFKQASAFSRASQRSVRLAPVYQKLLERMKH
In words: ELISA; recombinant Notch-1 (2 g/ml as printed, in PBS) coated on 96-well polystyrene plates at RT overnight; blocked with 1% BSA in PBS; Jagged-1 or TGFBI added at 0 to 2000 ng/ml; biotinylated antibodies, streptavidin-HRP, OD 450 nm; Kd (nM) = ED50 (ng/mL)/molecular weight of binding protein. The following applies: both partners purified.

In PMC10073093, “TGFBI remodels adipose metabolism by regulating the Notch-1 signaling pathway” (Experimental & Molecular Medicine, 2023) one finds EC50 and Kd data, which are given here for two molecules.

B1: Recombinant TGFBI (transforming growth factor-beta-induced protein) (natural protein)
chain: T2 sequence (looked up)
modifications: Species, supplier and limits not stated. Human assumed (mouse Q01705 is possible). Limits follow the usual commercial recombinant Notch-1 ectodomain fragment (N-terminal EGF repeats including ligand-binding EGF 11-12), recalled rather than printed; any Fc carrier omitted.
On to B1, for which, in assay [1], the EC50 (as a rule, the concentration needed to bring the measured effect to its halfway point) was 0.452 µg/mL.

B2: Recombinant Notch-1 protein (receptor)
chain: T1 chain
modifications: Species, supplier and limits not stated. Human assumed (mouse Q01705 is possible). Limits follow the usual commercial recombinant Notch-1 ectodomain fragment (N-terminal EGF repeats including …)
Take B2: the Kd (usually the constant that tells how readily two partners part at equilibrium) in assay [2] was determined as 3.18 nM.
